# Experimental data reported in IntAct's records for PubMed 15066285.
# B1: Protein pop-1 (Caenorhabditis elegans), Q10666 (parent)
# chain: MMADEELGDEVKVFRRDEDADDDPMISGETSEQQLADDKKEAVMEAELDGAGRNPSIDVLKSAFPKVEPMSPSFPGLMSHFSPGYSAAALPMFMPLFMNPYAAALRSPSLMFPMGAMSPTFPMFPPSPVYGAAIAAAAAKQHFENMAPLNMRAGHPMNQMGMPPYMHPSSMAPQNVDRRAQGGGKAKKDDHVKKPLNAFMWFMKENRKALLEEIGNNEKQSAELNKELGKRWHDLSKEEQAKYFEMAKKDKETHKERYPEWSARENYAVNKKKTKKRRDKSIPSENNDQKKCRARFGVNNTEMWCKFCKRKKKCEYATDRSGGSDITDSQDGRGTSGAYSSSSESPSPKANAGIALTTQQQQAAMMHTMLMQMRLGSTTGASTHVPSPLASSSAGRSPLDANASDSESDVEEEEDEQIDPTVMQQTHDMLMQESMCTI
# partner: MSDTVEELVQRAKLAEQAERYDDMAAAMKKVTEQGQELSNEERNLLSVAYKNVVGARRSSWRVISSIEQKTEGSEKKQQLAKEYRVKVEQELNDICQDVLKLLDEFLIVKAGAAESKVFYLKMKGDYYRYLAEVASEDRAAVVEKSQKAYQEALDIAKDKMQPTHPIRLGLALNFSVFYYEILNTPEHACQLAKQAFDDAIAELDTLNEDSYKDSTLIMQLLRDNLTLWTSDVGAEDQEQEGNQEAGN
# Variants of: B1
# Conditions: with 14331_caeel par-5, P41932
row,effect of a mutation on the interaction,Variant
1,disrupting interaction,MMADEELGDEVKVFRRDEDADDDPMISGETSEQQLADDKKEAVMEAELDGAGRNPSIDVLKSAFPKVEPMSPSFPGLMSHFSPGYSAAALPMFMPLFMNPYAAALRAPALMFPMGAMAPAFPMFPPAPVYGAAIAAAAAKQHFENMAPLNMRAGHPMNQMGMPPYMHPSSMAPQNVDRRAQGGGKAKKDDHVKKPLNAFMWFMKENRKALLEEIGNNEKQSAELNKELGKRWHDLSKEEQAKYFEMAKKDKETHKERYPEWSARENYAVNKKKTKKRRDKSIPSENNDQKKCRARFGVNNTEMWCKFCKRKKKCEYATDRSGGSDITDSQDGRGTSGAYSSSSESPSPKANAGIALTTQQQQAAMMHTMLMQMRLGSTTGASTHVPSPLASSSAGRSPLDANASDSESDVEEEEDEQIDPTVMQQTHDMLMQESMCTI [S107A;S109A;S118A;T120A;S127A]
